Experimental data as given in US20120283136A1, “COMPOSITIONS AND METHODS FOR THE RAPID BIOSYNTHESIS AND IN VIVO SCREENING OF BIOLOGICALLY RELEVANT PEPTIDES” (THE UNIVERSITY OF SOUTHERN CALIFORNIA, priority 2009, published 2012).
“Also recorded” adds a separate entry of the source. Where no end group is shown, it is not given here.

Key:
[1] = molecular target: trypsin (Sus scrofa, UniProt P00761); assay: Competing trypsin-binding experiments (sequential extraction with limiting trypsin-sepharose); details: in vitro and in vivo cyclized libraries, trypsin-sepharose under competing conditions (about 20% of beads required for stoichiometric binding), MCoTI-I wt as internal reference
[2] = molecular target: trypsin; details: read-out: Ki (affinity for trypsin); cited from earlier work
[3] = Saether et al. (1995); cited from earlier work
[4] = molecular target: LF protease (Bacillus anthracis, UniProt P15917); format: biochemical, B. anthracis strain Sterne

Chain of trypsin (Sus scrofa, UniProt P00761) (P00761 9-231): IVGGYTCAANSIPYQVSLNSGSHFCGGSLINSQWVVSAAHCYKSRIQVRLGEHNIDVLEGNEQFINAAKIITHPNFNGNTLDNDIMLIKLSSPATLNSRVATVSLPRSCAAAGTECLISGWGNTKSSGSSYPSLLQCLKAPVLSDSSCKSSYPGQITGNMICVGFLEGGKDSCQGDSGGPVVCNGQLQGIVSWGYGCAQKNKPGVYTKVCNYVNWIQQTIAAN

With “Q7G (CGSGSDGGVCPKILGRCRRDSDCPGACICRGNGY; not fully specified (bridges); ends and bridges not checked)” the “relative affinity for trypsin versus MCoTI-I wt (elution profile)” value [1] was “lower affinity; also recorded: weaker affinity”.
For “MCoTI-II (cyclo(SGSDGGVCPKILKKCRRDSDCPGACICRGNGYCG); ends not checked; also: three disulfide bonds (cystine knot), pairing not given here; UniProt P82409 1-34, looked up)”, the Ki [2] is listed as ~2 pM.
In the case of “Kalata B1 (cyclo(GLPVCGETCVGGTCNTPGCTCSWPVCTRN); ends not checked; also: three disulfide bonds (cystine knot), pairing not given here; UniProt P56254 89-117, looked up) [first cyclotide to be discovered, from Oldenlandia affinis]”, the oral bioavailability [3] is given as “orally bioavailable”.
With “H-RRKKVYPYPMEGTIA-NH2 [consensus LF substrate peptide made by Fmoc solid-phase synthesis]” the “time for cleavage of the P1-P1′ peptide bond by LF” value [4] was “less than 15 minutes”.
